Columns and labels:
[1] = biological target: rPfCSP_∆ABCD (Plasmodium falciparum) (UniProt Q7K740); assay: ITC
[2] = biological target: recombinant full-length PfCSP (rPfCSP_FL) (Plasmodium falciparum) (UniProt Q7K740); assay: ITC

Substance: L9 (antibody)
- Kd [1]: 73 nM
- stoichiometry N (antigen binding sites per rPfCSP) [1]: 12.7
- KD1 (binding event 1) [2]: 22 nM
- KD2 (binding event 2) [2]: 47 nM
- N of binding event 1 (binding sites) [2]: 2
- N of binding event 2 (binding sites) [2]: 9
- stoichiometry N (antigen binding sites per rPfCSP) [2]: 11.2
